Test results: the Human Domainome abundance scans (Beltran et al. 2025)

B1: Neutrophil cytosol factor 2, residues 456 to 514; numbered along this chain, P19878 (parent)
chain: LKKGSQVEALFSYEATQPEDLEFQEGDIILVLSKVNEEWLEGECKGKVGIFPKVFVEDC

Variants of: B1
Experiment: abundance fitness (aPCA) (normalised: wild type 0, dead -1); higher = more abundant; growth selection in yeast, the domain comes from the species named
Settings: Homo sapiens

Abundance fitness: each site, then its substitutions
V54: F -0.203 | E -0.124 | T 0.18 | G -0.209 | H 0.425 | C 0.378 | I -0.079 | Q 0.298 | M 0.378 | P -0.459 | Y -0.03 | K 0.663 | L -0.434 | W -0.438 | D 0.049 | A 0.431 | R 0.625
F51: M 0.006 | W -0.739 | E 0.113 | V -0.342 | I -0.506 | G -0.425 | N -0.584 | H -0.18 | L -0.735 | T -0.165 | P -0.924 | Y -0.359 | R -0.716 | S -0.328 | C -0.247 | A -0.63
K47: G -0.511 | S -0.22 | V -0.331 | Y -0.742 | D -0.858 | C -0.658 | P -0.806 | T -0.284 | L -0.361 | W -0.416 | Q -0.856 | M -0.924 | H -0.673 | R -0.118 | F -0.241 | N -0.271 | E -0.822 | A -1.04 | I -0.642
E43: V -0.654 | I -0.567 | Q -0.078 | L -0.487 | A -0.035 | C -0.685 | N -0.758 | S 0.025 | G -0.152 | K -0.235 | M -0.009 | R -0.521 | W -0.435 | P -0.818 | F -0.324 | H -0.314 | T -0.163
W39: M 0.036 | A -0.643 | Q -0.864 | P -0.598 | D -0.598 | T -0.735 | N -0.196 | R -0.893 | F -0.49 | H -1.03 | Y -0.321 | E -0.269 | I -0.109 | S -0.666 | G -0.414 | L -0.8 | C -0.379
F55: A 0.034 | R -0.521 | S -0.753 | M 0.111 | I -0.599 | D -0.409 | G -0.486 | P -0.145 | C 0.597 | L 0.207 | K -0.584 | H -0.229 | E -0.821 | N -0.522
C44: R -0.336 | M 0.102 | G -0.383 | F -0.741 | D -0.557 | I -0.705 | A -0.241 | P -0.583 | W -0.182 | V -0.455 | T -0.467 | L -0.35 | Y -0.478 | K -0.574 | N -0.924 | H -0.806 | E -0.865
V48: I -0.138 | A 0.008 | Y -0.17 | W -0.901 | C -0.392 | R 0.68 | G -0.387 | T -0.031 | D -0.443 | N -0.334 | F -0.505 | L -0.706 | K 0.295 | P -1.04 | S -0.355 | E -0.974
N36: S -0.586 | C -0.761 | K 0.093 | A -0.063 | L -0.968 | M -0.43 | V -0.686 | H -0.276 | W -0.712 | G -0.103 | F -0.446 | P -1.03 | T -0.867 | R -0.963 | D -0.477 | Y -0.754
E38: R -0.941 | W -0.396 | G -0.207 | A -0.329 | P -0.496 | N -0.131 | I -0.097 | C -0.702 | H -0.362 | Y -0.266 | D 0.028 | V -0.479 | K -0.649 | S -0.701
L40: F -0.548 | H -0.764 | N -0.945 | S -0.729
